Results: the supplement of paper PMC12764529
± gives the half width of the 95% confidence interval.

Columns and labels:
[1] = folding stability dG unfold from chymotrypsin proteolysis; higher = more stable
How it was run: (§1)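 Only designs with AlphaFold2 dimer inter-PAE above 15 were retained; each was a mini-protein under 80 residues with no cysteine, in a PA-tagged cDNA display construct. After digestion with trypsin and chymotrypsin and sequencing, K50 was inferred by Bayesian fitting of counts, and unfolding free energy was derived per protease or combined against a sequence-predicted unfolded-state K50 and a shared folded-state K50.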

[2] = folding stability dG unfold from trypsin proteolysis; higher = more stable
How it was run: as §1

[3] = folding stability dG unfold (combined trypsin and chymotrypsin); higher = more stable
How it was run: as §1

| Sequence | folding stability dG unfold [1] | folding stability dG unfold [2] | folding stability dG unfold [3] |
| --- | --- | --- | --- |
| SAGGSTVAKKTTEKDPNSDTTTVTITFPETGVKLTVTVPPGGETTVTLNNGSPPTTLTLPLSVLKLLSAGGS [r8_238_JUSTAS] | 0.87 ± 0.067 kcal/mol | 0.192 ± 0.077 kcal/mol | 0.612 ± 0.077 kcal/mol |
| SAEPITITWPNGMQIPLYKDDDGEIEIKIQMYDPKDGKPVGEQEQRIDPDDNTIEFRFPNGWPFSITIPDSA [r9_56_TrROS] | 0.0536 ± 0.57 kcal/mol | 0.835 ± 0.11 kcal/mol | 0.473 ± 0.22 kcal/mol |
| SAGGSAGGSAGMKKTVTTSTAPDGTLTTTTTVPTPDSTTTVVTTTTDPTTGTTTTTTTANSAGGSAGGSAGG [r11_107_JUSTAS] | -0.317 ± 0.095 kcal/mol | -2 ± 0.54 kcal/mol | -0.711 ± 0.34 kcal/mol |
| SAGGSEKIEVEVERREDGYLVLRVRLELFDENGELVEEIEIEVVLPREELEKMSLEELLKRLLEELSAGGSA [r2_421_TrROS_Hall] | 5.25 ± 0.38 kcal/mol | 3.99 ± 0.17 kcal/mol | 5.08 ± 0.67 kcal/mol |
| SAGGSAGGSAGGKEEEARKLAEELAKELGLEIVEVKVERTEKEVKVTIRIKKDGKEIEFSAGGSAGGSAGGS [r10_161_TrROS_Hall] | 1.36 ± 0.025 kcal/mol | 1.09 ± 0.048 kcal/mol | 1.29 ± 0.12 kcal/mol |
| SAGGSAPARIVLPGGRTRTLRLSEISPELLAAFPDVLVRLPGGEVRRLPADTLLSLEGDYTLVVPGSAGGSA [r15_733_TrMRF] | 0.573 ± 0.12 kcal/mol | -0.262 ± 0.18 kcal/mol | 0.335 ± 0.099 kcal/mol |
| SAGGSAGGSMTAEEIAEKFPGLPPEQIKNIPIERHPDGYMTVNIEHRGPNGNKQEQQVEIPVDSAGGSAGGS [r12_1050_TrROS] | 0.505 ± 0.037 kcal/mol | 0.509 ± 0.04 kcal/mol | 0.483 ± 0.16 kcal/mol |
| SATKTITIELPVDVPVEVLKEFFEALGFTEMEFYETEDPRTLVVRFTVPGDPVTVIVIVRPLPVPPDEPLSA [r9_1090_TrMRF] | 3.57 ± 0.063 kcal/mol | 3.29 ± 0.16 kcal/mol | 3.55 ± 0.12 kcal/mol |
| SAGGSETVEIELGSEDGTVYKIEIERFPETGLLLIKVDGPDPKVIEKVVKELGVDVVEVLEDGYVLLASAGG [r13_937_TrMRF] | 1.89 ± 0.05 kcal/mol | 1.45 ± 0.059 kcal/mol | 1.78 ± 0.065 kcal/mol |
| SAGGSAGGSMLEEKIKQVPKSEKATITIKVKNENGKWKVVTVEVTYIEGKNEYEVKITITPEPGSAGGSAGG [r6_545_JUSTAS] | 3.04 ± 0.18 kcal/mol | 1.73 ± 0.2 kcal/mol | 2.29 ± 0.3 kcal/mol |
| SAGGSAGGSAGGLDLSVPGLTSVTPVLLEDPRGYVTTVYTTTYPDGTVLTHTTVLPASLLSAGGSAGGSAGG [r7_214_JUSTAS] | 1.16 ± 0.031 kcal/mol | 1.09 ± 0.025 kcal/mol | 1.16 ± 0.024 kcal/mol |
| SAGGSAGGSAGGSMKIELPEGAEITEIKKLPNGTYEMTIRVDGKELKIRFVDGKLVIVPSAGGSAGGSAGGS [r4_280_TrROS_Hall] | 3.51 ± 0.057 kcal/mol | 3.62 ± 0.14 kcal/mol | 3.56 ± 0.077 kcal/mol |
| MRLRLTFRLPDGTEFRVERVEVLRVEPRGDRVVIPVRAYFTPEERRRLEELIPGLRDRPPLVVEVEIVLTGS [r1_35_TrMRF] | 4.38 ± 0.055 kcal/mol | 3.05 ± 0.083 kcal/mol | 3.96 ± 0.072 kcal/mol |
| SAGGKPRILLRRETAPDGRPYYVLQVLRRDPSDDGWTPVLEHRFETPEEAERYARELAEKTGYELVGSAGGS [r16_512_TrMRF] | 4.9 ± 0.11 kcal/mol | 4 ± 0.11 kcal/mol | 4.72 ± 0.075 kcal/mol |
| SAGGMVKLFTWPPGQPEEFAEKLRKLPDVVEVTIEEVDGALRIRIKLKGKDVEVTTDPAGRWSVTVVGSAGG [r13_907_JUSTAS] | 2.35 ± 0.028 kcal/mol | 2.15 ± 0.034 kcal/mol | 2.28 ± 0.048 kcal/mol |
| SASLANGGLRVDVELEFDPETHEIRVKRLTLYRGDEPVATADATIAVPPAAPPPPPVVVLDPDVPFDNESAG [r14_571_TrMRF] | 1.71 ± 0.084 kcal/mol | 0.687 ± 0.075 kcal/mol | 1.28 ± 0.12 kcal/mol |
| SAGGSADSVTFTDPNVEEQIVIPPYVIFKYPDGSVRIIAFDDGDKAEILEEIPFVPPLEPLHPDLESAGGSA [r15_393_TrMRF] | 1.11 ± 0.076 kcal/mol | 0.84 ± 0.03 kcal/mol | 1.06 ± 0.17 kcal/mol |
| SAGSSSSLPNVLVVTLYLPDAPLPIVLPVDTPEDVELAKERVKEIEKELEELGLPVNVEFKYYPPGFPVSAG [r5_823_TrMRF] | -1.16 ± 0.84 kcal/mol | 0.497 ± 0.065 kcal/mol | 0.194 ± 0.18 kcal/mol |
| SAGGSAGGSAGGSMKIYKITVKKEDSELEFYVSDDVPAEVAANILKALYPDVEVKIEEGSAGGSAGGSAGGS [r4_155_TrMRF] | 1.1 ± 0.1 kcal/mol | 1.25 ± 0.048 kcal/mol | 1.11 ± 0.15 kcal/mol |
| SAGGAVYRNPATGEWYEPGMTEEEREARARAALPPPTVTITVTVTVVFEDNGTTVTATATVTLTVEGSAGGS [r16_387_TrROS_Hall] | 3.83 ± 0.12 kcal/mol | 2.97 ± 0.11 kcal/mol | 3.44 ± 0.1 kcal/mol |
| SAGGSAMRPLELENPNGREITIWYNPGEGHFQVEIERYEPPPNGKKKPQRHTFMVNSPEDLLDFIKSAGGSA [r15_31_TrROS] | 1.6 ± 0.15 kcal/mol | 1.57 ± 0.046 kcal/mol | 1.65 ± 0.19 kcal/mol |
